Measured values reported in US20180022780A1 (Bayer, published 2018).
Bridge positions count the residues as written; N and C are the ends. Square brackets hold non-standard residues; d marks the D form. Ends that are not written are not given here. * marks the point of attachment. Palmitoyl = CCCCCCCCCCCCCCCC(=O)*; NMeK = CN[C@@H](CCCCN)C(=O)O; Orn = NCCC[C@H](N)C(=O)O; Dab = NCC[C@H](N)C(=O)O; Dap = NC[C@H](N)C(=O)O

Assays:
[1] = biological target: human adrenomedullin-receptor (human, UniProt Q16602 23-461); test: cell-based or functional assay
Chain of human adrenomedullin-receptor (Q16602 23-461): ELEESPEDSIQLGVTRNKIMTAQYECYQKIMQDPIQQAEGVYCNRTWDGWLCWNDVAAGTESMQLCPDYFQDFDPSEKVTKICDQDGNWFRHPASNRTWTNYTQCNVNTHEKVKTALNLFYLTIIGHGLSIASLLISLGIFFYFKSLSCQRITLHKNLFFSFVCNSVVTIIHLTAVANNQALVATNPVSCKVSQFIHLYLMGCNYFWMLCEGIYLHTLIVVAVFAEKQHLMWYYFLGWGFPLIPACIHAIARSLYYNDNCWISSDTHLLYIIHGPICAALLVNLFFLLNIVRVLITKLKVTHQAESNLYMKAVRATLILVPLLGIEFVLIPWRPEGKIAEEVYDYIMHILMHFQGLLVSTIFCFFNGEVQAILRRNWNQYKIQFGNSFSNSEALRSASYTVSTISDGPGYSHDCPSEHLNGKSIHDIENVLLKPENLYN

[2] = biological target: CLR fused to EYFP with RAMP2 fused to ECFP; test: cell-based or functional assay
Chain of CLR fused to EYFP with RAMP2 fused to ECFP (Q16602 whole entry, chain 1 of 2, the tested form may be a part): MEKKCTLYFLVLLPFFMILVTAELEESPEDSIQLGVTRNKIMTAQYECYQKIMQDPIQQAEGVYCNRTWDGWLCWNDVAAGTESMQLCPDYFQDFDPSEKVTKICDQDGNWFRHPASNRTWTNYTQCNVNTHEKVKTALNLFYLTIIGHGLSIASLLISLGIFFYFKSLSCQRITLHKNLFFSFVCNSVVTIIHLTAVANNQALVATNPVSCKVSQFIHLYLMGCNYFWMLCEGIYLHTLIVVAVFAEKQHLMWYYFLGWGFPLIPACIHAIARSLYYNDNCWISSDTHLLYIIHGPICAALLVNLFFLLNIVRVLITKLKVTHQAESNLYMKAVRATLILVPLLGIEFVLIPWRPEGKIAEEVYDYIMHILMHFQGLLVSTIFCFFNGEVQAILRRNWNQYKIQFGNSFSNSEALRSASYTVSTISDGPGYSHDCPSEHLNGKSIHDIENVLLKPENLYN
Chain of CLR fused to EYFP with RAMP2 fused to ECFP (O60895 whole entry, chain 2 of 2, further chain, the tested form may be a part): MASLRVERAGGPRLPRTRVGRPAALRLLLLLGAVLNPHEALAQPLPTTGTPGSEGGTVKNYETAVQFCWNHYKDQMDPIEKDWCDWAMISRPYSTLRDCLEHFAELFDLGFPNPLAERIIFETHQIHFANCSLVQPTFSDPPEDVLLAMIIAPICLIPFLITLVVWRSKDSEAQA

| Binder | EC50 [nM], aequorin luminescence of CHO adrenomedullin-receptor reporter cells [1] [nM] | EC50 [nM], cAMP assay (CRE-luciferase luminescence, HEK293 cells) [2] [nM] |
| --- | --- | --- |
| GGDRFGTKTVQKLAHQIYQFTDKDKDNVAPRSKISPQGY-NH2 (lactam 3-8) [[G^14, (D^16, K^21)lac]ADM(14-52)] | 15 | 2.3 |
| GG[Orn]RFGTETVQKLAHQIYQFTDKDKDNVAPRSKISPQGY-NH2 (lactam 3-8; N-terminus assumed; SMILES CC[C@H](C)[C@H](NC(=O)[C@H](CCC(N)=O)NC(=O)[C@H](Cc1c[nH]cn1)NC(=O)[C@H](C)NC(=O)[C@H](CC(C)C)NC(=O)[C@H](CCCCN)NC(=O)[C@H](CCC(N)=O)NC(=O)[C@@H](NC(=O)[C@@H](NC(=O)[C@@H]1CCC(=O)NCCC[C@H](NC(=O)CNC(=O)CN)C(=O)N[C@@H](CCCNC(=N)N)C(=O)N[C@@H](Cc2ccccc2)C(=O)NCC(=O)N[C@@H]([C@@H](C)O)C(=O)N1)[C@@H](C)O)C(C)C)C(=O)N[C@@H](Cc1ccc(O)cc1)C(=O)N[C@@H](CCC(N)=O)C(=O)N[C@@H](Cc1ccccc1)C(=O)N[C@H](C(=O)N[C@@H](CC(=O)O)C(=O)N[C@@H](CCCCN)C(=O)N[C@@H](CC(=O)O)C(=O)N[C@@H](CCCCN)C(=O)N[C@@H](CC(=O)O)C(=O)N[C@@H](CC(N)=O)C(=O)N[C@H](C(=O)N[C@@H](C)C(=O)N1CCC[C@H]1C(=O)N[C@@H](CCCNC(=N)N)C(=O)N[C@@H](CO)C(=O)N[C@@H](CCCCN)C(=O)N[C@H](C(=O)N[C@@H](CO)C(=O)N1CCC[C@H]1C(=O)N[C@@H](CCC(N)=O)C(=O)NCC(=O)N[C@@H](Cc1ccc(O)cc1)C(N)=O)[C@@H](C)CC)C(C)C)[C@@H](C)O) [[G^14, (Orn^16, E^21)lac]ADM(14-52)] | 27 | 9.1 |
| GGDRFGT[Dap]TVQKLAHQIYQFTDKDKDNVAPRSKISPQGY-NH2 (lactam 3-8) [[G^14, (D^16, Dpr^21)lac]ADM(14-52)] | 32 | > 1000 |
| GG[Dap]RFGTDTVQKLAHQIYQFTDKDKDNVAPRSKISPQGY-NH2 (lactam 3-8; N-terminus assumed; SMILES CC[C@H](C)[C@H](NC(=O)[C@H](CCC(N)=O)NC(=O)[C@H](Cc1c[nH]cn1)NC(=O)[C@H](C)NC(=O)[C@H](CC(C)C)NC(=O)[C@H](CCCCN)NC(=O)[C@H](CCC(N)=O)NC(=O)[C@@H](NC(=O)[C@@H](NC(=O)[C@@H]1CC(=O)NC[C@H](NC(=O)CNC(=O)CN)C(=O)N[C@@H](CCCNC(=N)N)C(=O)N[C@@H](Cc2ccccc2)C(=O)NCC(=O)N[C@@H]([C@@H](C)O)C(=O)N1)[C@@H](C)O)C(C)C)C(=O)N[C@@H](Cc1ccc(O)cc1)C(=O)N[C@@H](CCC(N)=O)C(=O)N[C@@H](Cc1ccccc1)C(=O)N[C@H](C(=O)N[C@@H](CC(=O)O)C(=O)N[C@@H](CCCCN)C(=O)N[C@@H](CC(=O)O)C(=O)N[C@@H](CCCCN)C(=O)N[C@@H](CC(=O)O)C(=O)N[C@@H](CC(N)=O)C(=O)N[C@H](C(=O)N[C@@H](C)C(=O)N1CCC[C@H]1C(=O)N[C@@H](CCCNC(=N)N)C(=O)N[C@@H](CO)C(=O)N[C@@H](CCCCN)C(=O)N[C@H](C(=O)N[C@@H](CO)C(=O)N1CCC[C@H]1C(=O)N[C@@H](CCC(N)=O)C(=O)NCC(=O)N[C@@H](Cc1ccc(O)cc1)C(N)=O)[C@@H](C)CC)C(C)C)[C@@H](C)O) [[G^14, (Dpr^16, D^21)lac]ADM(14-52)] | 49.6 | 67 |
| GG[Dab]RFGTDTVQKLAHQIYQFTDKDKDNVAPRSKISPQGY-NH2 (lactam 3-8; N-terminus assumed; SMILES CC[C@H](C)[C@H](NC(=O)[C@H](CCC(N)=O)NC(=O)[C@H](Cc1c[nH]cn1)NC(=O)[C@H](C)NC(=O)[C@H](CC(C)C)NC(=O)[C@H](CCCCN)NC(=O)[C@H](CCC(N)=O)NC(=O)[C@@H](NC(=O)[C@@H](NC(=O)[C@@H]1CC(=O)NCC[C@H](NC(=O)CNC(=O)CN)C(=O)N[C@@H](CCCNC(=N)N)C(=O)N[C@@H](Cc2ccccc2)C(=O)NCC(=O)N[C@@H]([C@@H](C)O)C(=O)N1)[C@@H](C)O)C(C)C)C(=O)N[C@@H](Cc1ccc(O)cc1)C(=O)N[C@@H](CCC(N)=O)C(=O)N[C@@H](Cc1ccccc1)C(=O)N[C@H](C(=O)N[C@@H](CC(=O)O)C(=O)N[C@@H](CCCCN)C(=O)N[C@@H](CC(=O)O)C(=O)N[C@@H](CCCCN)C(=O)N[C@@H](CC(=O)O)C(=O)N[C@@H](CC(N)=O)C(=O)N[C@H](C(=O)N[C@@H](C)C(=O)N1CCC[C@H]1C(=O)N[C@@H](CCCNC(=N)N)C(=O)N[C@@H](CO)C(=O)N[C@@H](CCCCN)C(=O)N[C@H](C(=O)N[C@@H](CO)C(=O)N1CCC[C@H]1C(=O)N[C@@H](CCC(N)=O)C(=O)NCC(=O)N[C@@H](Cc1ccc(O)cc1)C(N)=O)[C@@H](C)CC)C(C)C)[C@@H](C)O) [[G^14, (Dab^16, D^21)lac]ADM(14-52)] | > 1000 | 112 |
| GGKRFGTDTVQKLAHQIYQFTDKDKDNVAPRSKISPQGY-NH2 (lactam 3-8; N-terminus assumed; SMILES CC[C@H](C)[C@H](NC(=O)[C@H](CCC(N)=O)NC(=O)[C@H](Cc1c[nH]cn1)NC(=O)[C@H](C)NC(=O)[C@H](CC(C)C)NC(=O)[C@H](CCCCN)NC(=O)[C@H](CCC(N)=O)NC(=O)[C@@H](NC(=O)[C@@H](NC(=O)[C@@H]1CC(=O)NCCCC[C@H](NC(=O)CNC(=O)CN)C(=O)N[C@@H](CCCNC(=N)N)C(=O)N[C@@H](Cc2ccccc2)C(=O)NCC(=O)N[C@@H]([C@@H](C)O)C(=O)N1)[C@@H](C)O)C(C)C)C(=O)N[C@@H](Cc1ccc(O)cc1)C(=O)N[C@@H](CCC(N)=O)C(=O)N[C@@H](Cc1ccccc1)C(=O)N[C@H](C(=O)N[C@@H](CC(=O)O)C(=O)N[C@@H](CCCCN)C(=O)N[C@@H](CC(=O)O)C(=O)N[C@@H](CCCCN)C(=O)N[C@@H](CC(=O)O)C(=O)N[C@@H](CC(N)=O)C(=O)N[C@H](C(=O)N[C@@H](C)C(=O)N1CCC[C@H]1C(=O)N[C@@H](CCCNC(=N)N)C(=O)N[C@@H](CO)C(=O)N[C@@H](CCCCN)C(=O)N[C@H](C(=O)N[C@@H](CO)C(=O)N1CCC[C@H]1C(=O)N[C@@H](CCC(N)=O)C(=O)NCC(=O)N[C@@H](Cc1ccc(O)cc1)C(N)=O)[C@@H](C)CC)C(C)C)[C@@H](C)O) [[G^14, (K^16, D^21)lac]ADM(14-52)] | > 1000 | > 1000 |
| K(Palmitoyl)G[Dap]RFGTETVQKLAHQIYQFTDKDKDNVAPRS[NMeK]ISPQGY-NH2 (lactam 3-8; N-terminus assumed; SMILES CCCCCCCCCCCCCCCC(=O)NCCCC[C@H](N)C(=O)NCC(=O)N[C@H]1CNC(=O)CC[C@@H](C(=O)N[C@H](C(=O)N[C@H](C(=O)N[C@@H](CCC(N)=O)C(=O)N[C@@H](CCCCN)C(=O)N[C@@H](CC(C)C)C(=O)N[C@@H](C)C(=O)N[C@@H](Cc2c[nH]cn2)C(=O)N[C@@H](CCC(N)=O)C(=O)N[C@H](C(=O)N[C@@H](Cc2ccc(O)cc2)C(=O)N[C@@H](CCC(N)=O)C(=O)N[C@@H](Cc2ccccc2)C(=O)N[C@H](C(=O)N[C@@H](CC(=O)O)C(=O)N[C@@H](CCCCN)C(=O)N[C@@H](CC(=O)O)C(=O)N[C@@H](CCCCN)C(=O)N[C@@H](CC(=O)O)C(=O)N[C@@H](CC(N)=O)C(=O)N[C@H](C(=O)N[C@@H](C)C(=O)N2CCC[C@H]2C(=O)N[C@@H](CCCNC(=N)N)C(=O)N[C@@H](CO)C(=O)N(C)[C@@H](CCCCN)C(=O)N[C@H](C(=O)N[C@@H](CO)C(=O)N2CCC[C@H]2C(=O)N[C@@H](CCC(N)=O)C(=O)NCC(=O)N[C@@H](Cc2ccc(O)cc2)C(N)=O)[C@@H](C)CC)C(C)C)[C@@H](C)O)[C@@H](C)CC)C(C)C)[C@@H](C)O)NC(=O)[C@H]([C@@H](C)O)NC(=O)CNC(=O)[C@H](Cc2ccccc2)NC(=O)[C@H](CCCNC(=N)N)NC1=O) [[K^14(PAM), (Dpr^16,E^21)lac, N-Me-K^46]ADM(14-52)] | 56 | 3.4 |
| GGDRFGT[Dab]TVQKLAHQIYQFTDKDKDNVAPRSKISPQGY-NH2 (lactam 3-8) [[G^14, (D^16, Dab^21)lac]ADM(14-52)] | 21.1 | 21 |
| GGERFGT[Dap]TVQKLAHQIYQFTDKDKDNVAPRSKISPQGY-NH2 (lactam 3-8) [[G^14, (E^16, Dpr^21)lac]ADM(14-52)] | > 1000 | 303 |
| GGCRFGTXTVQKLAHQIYQFTDKDKDNVAPRSKISPQGY (palmitic acid (PAM) on the N-terminus (G14); positions 16 and 21 (residues 3 and 8 of the letters) together are cystathionine (C^16→U^21, thioether); X stands for the printed U at 21; C-terminal …) [PAM[G^14, (C^16→U^21)]ADM(14-52)] | 15 | 16.9 |
